Reference: IntAct's records for PubMed 19017798

B1: Latent membrane protein 1 (Epstein-Barr virus (strain B95-8) (HHV-4)), P03230 (parent)
chain: MEHDLERGPPGPRRPPRGPPLSSSLGLALLLLLLALLFWLYIVMSDWTGGALLVLYSFALMLIIIILIIFIFRRDLLCPLGALCILLLMITLLLIALWNLHGQALFLGIVLFIFGCLLVLGIWIYLLEMLWRLGATIWQLLAFFLAFFLDLILLIIALYLQQNWWTLLVDLLWLLLFLAILIWMYYHGQRHSDEHHHDDSLPHPQQATDDSGHESDSNSNEGRHHLLVSGAGDGPPLCSQNLGAPGGGPDNGPQDPDNTDDNGPQDPDNTDDNGPHDPLPQDPDNTDDNGPQDPDNTDDNGPHDPLPHSPSDSAGNDGGPPQLTEEVENKGGDQGPPLMTDGGGGHSHDSGHGGGDPHLPTLLLGSSGSGGDDDDPHGPVQLSYYD
partner: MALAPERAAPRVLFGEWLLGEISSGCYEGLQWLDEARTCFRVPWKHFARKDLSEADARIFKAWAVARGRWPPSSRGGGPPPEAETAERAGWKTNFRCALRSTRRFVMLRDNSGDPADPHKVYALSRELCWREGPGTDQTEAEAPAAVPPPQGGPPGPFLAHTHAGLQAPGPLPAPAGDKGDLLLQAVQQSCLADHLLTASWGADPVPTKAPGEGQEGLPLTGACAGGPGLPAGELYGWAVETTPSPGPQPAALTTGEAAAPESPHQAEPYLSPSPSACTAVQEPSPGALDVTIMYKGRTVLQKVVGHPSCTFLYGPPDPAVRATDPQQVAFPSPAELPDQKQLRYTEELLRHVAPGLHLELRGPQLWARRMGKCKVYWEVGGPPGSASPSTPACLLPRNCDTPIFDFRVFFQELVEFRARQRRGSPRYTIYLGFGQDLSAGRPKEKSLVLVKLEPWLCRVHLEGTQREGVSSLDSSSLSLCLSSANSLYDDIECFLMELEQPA

Variants of: B1
Settings: with IRF7, Q92985-1

Variant	effect of a mutation on the interaction
P376A;H377A;G378A;P379A;V380A;Q381A;L382A;S383A	disrupting interaction
